Experimental findings from US6995249, “Nucleic acid capable of binding specifically to Ras target protein” (Japan Science and Technology Corporation) are described below.

B1: RNA aptamer SEQ ID NO:25 (ssRNA)
RNA: GGGAGUGGAGGAAUUCAUCGAGGCAUAUGUCGACUCCGUCUUCCUUCAAACCAGUUAUAAAUUGGUUUUAGCAUAUGCCUUAGCGACAGCAAGCUUCUGC
B2: RNA aptamer SEQ ID NO:26 (ssRNA)
RNA: GGGAGUGGAGGAAUUCAUCGAGGCAUGACCUCCCGUGGCAGUAGGGGUAAAAAUUAUCUUCCUACACUUCUCAUGCCUUAGCGACAGCAAGCUUCUGC
B3: RNA aptamer SEQ ID NO:28 (3'-truncated) (ssRNA)
RNA: GGGAGUGGAGGAAUUCAUCGAGGCAUAUGUCGACUCCGUCUUCCUUCAAACCAGUUAUAAAUUGGUUUUAGCAUAUGCCU
B4: clone 21.12 (ssRNA)
RNA: GGGAGAUCAGAAUAAACGCUCAAGCGACAAGCAGCAGAUAAAGUUGAGCGCAACGCCGCUACAGAACCAAAUUAACAUGUAUGUUCGACAUGAGGCCCCUGCAGGGCG
B5: clone 21.08 (ssRNA)
RNA: GGGAGAUCAGAAUAAACGCUCAAUUGAAGAUCGUACAAUGGAUUCGAUCAUAACCCGAAGUUUUUAAACACUCUUUACCUGUAUUCGACAUGAGGCCCCUGCAGGGCG
B6: clone 21.02 (ssRNA)
RNA: GGGAGAUCAGAAUAAACGCUCAACUGAUCAAUGGCGUACAAUGGAUUCGUUCUCAUAACCAAAACCCUUACCCCUGGACUGAUUCGACAUGAGGCCCCUGCAGGGCG
B7: clone 21.06 (ssRNA)
RNA: GGGAGAUCAGAAUAAACGCUCAACUGAUCAAUGGCGUACAAUGGAUUCGUUCUCAUAACCAAAACCCUUACCCCUUGGACUGUUUCGACAUGAGGCCCCUGCAGGGCG
B8: clone 21.05 (ssRNA)
RNA: GGGAGAUCAGAAUAAACGCUCAACUGAUCAAUGGCGUACAAUGGAUUCGUUCUCAUAACCAAAACCCUUACUCCUUGGACUGCUUCGACAUGAGGCCCCUGCAGGGCG
B9: clone 21.04 (ssRNA)
RNA: GGGAGAUCAGAAUAAACGCUCAACUGAUCAAUGGCGUACAAUGGAUUCGCUCUCAUAACCAAAACCCUUACCCCUUGGACUGCUUCGACAUGAGGCCCCUGCAGGGCG
B10: clone 21.03 (ssRNA)
RNA: GGGAGAUCAGAAUAAACGCUCAACUGAUCAAUGGCGUACAAUGGAUUCGUUCUCAUAACCAAAACCCUUACCCCUUGGACUGCUUCGACAUGAGGCCCCUGCAGGGCG
B11: clone 21.07 (ssRNA)
RNA: GGGAGAUCAGAAUAAACGCUCAAUUGACUCAAUGGCGUACAAUGGAUUCGUUCUCAUAACCAAAACCCUUACCCCUUGGACUGUUCGACAUGAGGCCCCUGCAGGGCG
B12: clone 21.01 (ssRNA)
RNA: GGGAGAUCAGAAUAAACGCUCAACUGAUCAAUGGCGUACAAUGGAUUCGUUCUCAUAACCAAAACCCUUACCCCUUGGACUGAUUCGACAUGAGGCCCCUGCAGGGCG

In the first series the target is T1, Raf-1 RBD (GST-RBD) (UniProt P04049 P04049:51-131). The experiment in a line: filter; PBS + 5 mM MgCl2, 37 C. The settings on record: tags: GST fusion, expressed in E. coli; label: 5'-32P. The procedure: (§1) An RNA (4 nM) of which the 5'-terminus was labeled and 50 to 1,250 nM of GST-RBD were incubated in 600 µl of a binding buffer at 37° C. for 30 minutes. The culture was filtered with a nitrocellulose filter, and the radioactivity on the filter was measured. The Kd value was calculated using a software: Kalleider Graph (Bell, S. D., et al., (1998) J. Biol. Chem. 273, 14309–14314).
As a reminder, the Kd is the equilibrium constant for the complex coming apart. Turning to B1, the Kd came to 124 nM.
As to B2, the Kd turned out to be 295 nM.
B3: the Kd is 176 nM.

For another series, the target named is T1, Raf-1 RBD (GST-RBD). The experiment in a line: filter; scarcely bound; no inhibition of Ras binding at 12.5 uM. To be noted: tags: GST fusion, expressed in E. coli; label: 32P.
For B4, the binding result is on record as “no binding”.

The target in another series is T1, Raf-1 RBD (GST-RBD). Put plainly: filter; group 1; percent bound only in figure. To be noted: tags: GST fusion, expressed in E. coli; label: 32P.
Regarding B5, the binding result is “binds”.
Still for that read-out and setting: under B6 stands “binds”; under B7, “binds”.
The same measure, in the same setting: then B8, with “binds”.
With B9, the binding result is reported as “binds”.
With B10, the binding result is reported as “binds”.

For another series, the target named is T1, Raf-1 RBD (GST-RBD). The experiment in a line: filter; group 1; value only in figure; PBS + 5 mM MgCl2, 37 C. The settings on record: tags: GST fusion, expressed in E. coli; label: 32P. The method, then:
The interaction between the 10 RNAs among them and GST-RBD was examined by a binding assay using a nitrocellulose filter.
as §1
With B11, the binding result is “binds”.
With B12, the binding result is given as “binds”.
